From paper PMC2844784 (Cell host & microbe, 2010) come the findings set out here.

This assay deals with T1, recombinant Set7/9-KMT7 (UniProt Q8WTS6 1-366).
T1 sequence (looked up): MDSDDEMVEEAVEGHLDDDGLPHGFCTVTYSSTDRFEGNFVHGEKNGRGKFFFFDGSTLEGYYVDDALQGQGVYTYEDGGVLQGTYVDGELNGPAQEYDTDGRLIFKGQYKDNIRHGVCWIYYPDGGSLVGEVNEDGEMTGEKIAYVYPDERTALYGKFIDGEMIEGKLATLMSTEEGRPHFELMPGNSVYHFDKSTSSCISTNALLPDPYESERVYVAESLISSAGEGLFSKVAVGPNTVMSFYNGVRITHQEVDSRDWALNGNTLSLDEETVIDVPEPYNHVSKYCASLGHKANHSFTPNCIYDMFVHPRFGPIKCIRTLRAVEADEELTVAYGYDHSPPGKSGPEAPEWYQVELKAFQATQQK
In words: in vitro binding reaction.

B1: full-length synthetic Tat protein (aa 1-72) (natural protein)
chain: MEPVDPRLEPWKHPGSQPKTACTNCYCKKCCFHCQVCFITKALGISYGRKKRRQRRRAHQNSQTHQASLSKQ
For B1, the binding result is “binds”.
